T1: Recombinant NT antigen (N-terminal pro-brain natriuretic peptide, NT-proBNP) (human, UniProt P16860 27-102)
T1 construct: domain: N-terminal pro-brain natriuretic peptide (NT-proBNP); also called recombinant NT protein; N-terminal pro-B-type natriuretic peptide
T1 sequence (looked up): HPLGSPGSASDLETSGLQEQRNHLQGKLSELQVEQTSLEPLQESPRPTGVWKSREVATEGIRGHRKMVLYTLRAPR

B1: Mutation 1-47 (antibody)
heavy: QVRLQESGPSQVKPAQTLSLTCAISGFSITTYYVDWVRHTPGKPPEWLAQMTKDGNAVHQPTIRSRLSITRDTSKSQVFLKLTGVTTEDTAVYYCVRGVIDFGPGLLVTVSSASTTPPKVYPLTSCCGDTSSSIVTLGCLVSSYMPEPVTVTWNSGALTSGVHTFPAILQSSGLYSLSSVVTVPASTSGAQTFICNVAHPASSTKVDKRVEPGCPDPCKHCRCPPPELPGGPSVFIFPPKPKDTLTISGTPEVTCVVVDVGQDDPEVQFSWFVDNVEVRTARTKPREEQFNSTFRVVSALPIQHQDWTGGKEFKCKVHNEGLPAPIVRTISRTKGQAREPQVYVLAPPQEELSKSTLSVTCLVTGFYPDYIAVEWQKNGQPESEDKYGTTTSQLDADGSYFLYSRLRVDKNSWQEGDTYACVVMHEALHNHYTQKSISKPPGK
light: QAVLTQPSSVSRSLGQTVSITCSGSSDQVGFGDYVNWFQLIPGSAPKTLIFGASSRVRGVPDRFSGSRSGNTATLTINSLQAEDEADYYCGSPNSRNYVFGSGTRLTVLSQPKSAPSVTLFPPSKEELDTNKATVVCLISDFYPGSVNVVWKADGSTINQNVKTTQASKQSNSKYAASSYLTLTGSEWKSKSSYTCEVTHEGSTVTKTVKPSECS
B2: Mutation 1-53 (antibody)
heavy: B1 heavy with I29V, Q60N, I63V
light: B1 light with Q28N, V35I, S54Y, P93G
B3: Mutation 1-48 (antibody, V domains shown)
VH: QVRLQESGPSQVKPAQTLSLTCAISGFSLTTYYIDWVRHTPGKPPEWLAQMTKDGNAVHQPTIRSRLSITRDTSKSQVFLKLTGVTTEDTAVYYCVRGIIDWGPGLLVTVSS
VL: QAVLTQPSSVSRSLGQTVSITCSGSSDQVGFGDYVNWFQLIPGSAPKTLIFGATSRIRGVPDRFSGSRSGNTATLTINSLQAEDEADYYCGSPNSRGGYVFGSGTRLTVLS
B4: Mutation 1-50 (antibody, V domains shown)
VH: B3 VH with I34V, I63L, I99L
VL: B3 VL with V35I, I57V, P93A

Residue numbers refer to the chain shown, from its start.

By Kd is commonly meant the concentration at which binding is half-saturated.

The target in this assay is T1, Recombinant NT antigen (N-terminal …). The assay is described as follows: indirect ELISA, KD calculated from half-max OD at 4 coating concentrations. Summed up:
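Plates coated overnight at 4 °C with recombinant NT antigen at 3, 1.5, 0.75 or 0.375 μg/ml, blocked with 20% BSA. Antibody, 2-fold dilutions from 1000 to 0.977 ng/ml, was incubated 30 min at 37 °C, then detected with HRP anti-IgG, OD450/630. KD was derived from half-max OD across coating levels.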
B1: the Kd is 2.79 nM.
Consider B2, for which the Kd was 2.06 nM.
For the molecule B3, the Kd is 2.02 nM.
With B4, the Kd is 2.16 nM.

Values taken from patent US20220025008A1 (FAPON BIOTECH, published 2022).
